T1: FcγRIIB (CD32B) on Daudi cells (human, UniProt P31994 43-310)
T1 construct: whole, on cells; also called this human B cell tumor line
T1 sequence (looked up): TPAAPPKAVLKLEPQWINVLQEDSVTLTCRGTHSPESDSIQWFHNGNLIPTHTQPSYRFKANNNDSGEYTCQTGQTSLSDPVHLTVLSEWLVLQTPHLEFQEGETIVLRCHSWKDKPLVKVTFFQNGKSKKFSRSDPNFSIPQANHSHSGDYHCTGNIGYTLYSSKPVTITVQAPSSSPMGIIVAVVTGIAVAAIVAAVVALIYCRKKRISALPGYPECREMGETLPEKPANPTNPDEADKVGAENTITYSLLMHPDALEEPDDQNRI

T2: dimeric soluble FcγRIIa-Fc (UniProt P12318 34-217)
T2 construct: also called soluble FcγIIA; FcγIIA
T2 sequence (looked up): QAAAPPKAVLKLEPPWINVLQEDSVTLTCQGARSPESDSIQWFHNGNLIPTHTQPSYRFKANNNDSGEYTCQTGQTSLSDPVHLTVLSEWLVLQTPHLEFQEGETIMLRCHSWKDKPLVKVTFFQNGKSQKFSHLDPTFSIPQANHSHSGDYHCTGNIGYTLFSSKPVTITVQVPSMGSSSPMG


What was measured:
[1] = target: T1, FcγRIIB (CD32B) on Daudi cells; assay: FACS on Daudi cells, antibody at 0.02 µg/ml
Description: (§1) Protocol for FACS analysis. Approximately 10⁶ Daudi cells were used for each antibody staining Cells were washed once with PBS. Primary antibodies (Ch2B6, Hu2B6Hc/ch2B6Lc, human IgG1 ) were diluted into 0.5, 0.1, 0.02 μg/mL in PBS/1% BSA and 100 μL of diluted antibodies was transferred to the cells. After 30 mins incubation at 4° C., cells were washed once with 1 mL PBS/1% BSA. PE conjugated F(ab′)₂ fragment of goat anti human IgG Fc specific (Jackson ImmunoReseach, Inc.) was used as secondary antibody at 1:1000 dilution. After 30 mins incubation at 4° C., cells were washed once with 1 mL PBS/1% BSA. The cells were then resuspended in 500 μL of PBS/1% BSA and subjected to be FACS analysis.
(§2) Transfections of HEK-293 cells were performed using the following combinations: hu2B6HC/hu2B6LC; hu2B6HC/hu2B6LC(N50Y); hu2B6HC/hu2B6LC(N50Y,V51A); ch2B6HC/ch2B6LC. After three days in culture the amount of human IgG expressed was quantitated by an ELISA assay, using the method described above. Binding to dimeric soluble FcγRIIb-Fc was determined by ELISA assay. […] FACS analysis was then performed to measure the binding of the mAbs to Daudi cells (Table 8).

[2] = target: T1, FcγRIIB (CD32B) on Daudi cells; assay: FACS on Daudi cells, antibody at 0.1 µg/ml
Description: as §1, §2

[3] = target: T1, FcγRIIB (CD32B) on Daudi cells; assay: FACS on Daudi cells, antibody at 0.5 µg/ml
Description: as §1, §2

[4] = target: T2, dimeric soluble FcγRIIa-Fc; assay: ELISA, 100 ng/well soluble FcγIIA coated
Description: Protocal for ELISA assay: 100 ng/well of soluble FcγIIA in carbonate buffer was coated on 96-well Maxisorp plates at 4° C. overnight. A serial of two-fold dilution of conditioned medium of Ch2B6; hu2B6HC/hu2B6LC; hu2B6HC/hu2B6LC(N50Y); hu2B6HC/hu2B6LC(N50Y,V51A); and purified IV.3 starting from 25 ng/well was added to the each well. The plate was incubated at room temperature for 1 hour. The binding was detected by HRP conjugated F(ab′)2 goat anti human IgG F(ab′)2 specific secondary antibody for Ch2B6 and all hu2B6 samples and HRP conjugated F(ab′)2 goat anti mouse IgG (H+L) secondary antibody for IV.3. After incubation with the secondary antibody for approximately 45 minutes, the plate was developed using a TMB substrate. After 5 mins incubation, the reaction was stopped by 1% H₂SO₄. The OD₄₅₀ nm was ready by SOFTmax program. Between each step, the plates were washed 3 times with PBS/0.1% Tween 20. The plates were blocked by 0.5% BSA in PBS/0.1% Tween 20 for 30 mins at room temperature before adding the serial diluted antibodies.

Mean Fluorescence [1]	Mean Fluorescence [2]	Mean Fluorescence [3]	binding result [4]	Binder
45.6	141	193		ch2B6HC/ch2B6LC mAb (chimeric 2B6) (antibody, V domains shown, Tested as conditioned medium of transfected HEK-293 cells; also called ch2B6 mAb; chimeric mAb) VH: QVQLQQPVTELVRPGASVMLSCKASDYPFTNYWIHWVKQRPGQGLEWIGVIDPSDTYPNYNKKFKGKATLTVVVSSSTAYMQLSSLTSDDSAVYYCARNGDSDYYSGMDYWGQGTSVTVSS VL: DILLTQSPAILSVSPGERVSFSCRTSQSIGTNIHWYQQRTNGFPRLLIKNVSESISGIPSRFSGSGSGTDFILSINSVESEDIADYYCQQSNTWPFTFGGGTKLEIK
			no binding	hu2B6HC/hu2B6LC(N50Y) (antibody, V domains shown, Human C-Gamma1 and C-kappa constant regions; also called Hu2B6N50Y; Hu2B6 N50Y) VH: QVQLVQSGAEVKKPGASVKVSCKASGYTFTNYWIHWVRQAPGQGLEWMGVIDPSDTYPNYNKKFKGRVTMTTDTSTSTAYMELRSLRSDDTAVYYCARNGDSDYYSGMDYWGQGTTVTVSS VL: EIVLTQSPDFQSVTPKEKVTITCRTSQSIGTNIHWYQQKPDQSPKLLIKYVSESISGVPSRFSGSGSGTDFTLTINSLEAEDAATYYCQQSNTWPFTFGGGTKVEIK
			no binding	hu2B6HC/hu2B6LC mAb (humanized 2B6) (antibody, V domains shown, Human C-Gamma1 and C-kappa constant regions) VH: QVQLVQSGAEVKKPGASVKVSCKASGYTFTNYWIHWVRQAPGQGLEWMGVIDPSDTYPNYNKKFKGRVTMTTDTSTSTAYMELRSLRSDDTAVYYCARNGDSDYYSGMDYWGQGTTVTVSS VL: EIVLTQSPDFQSVTPKEKVTITCRTSQSIGTNIHWYQQKPDQSPKLLIKNVSESISGVPSRFSGSGSGTDFTLTINSLEAEDAATYYCQQSNTWPFTFGGGTKVEIK
			no binding	hu2B6HC/hu2B6LC(N50Y,V51A) (antibody, V domains shown, Human C-Gamma1 and C-kappa constant regions; also called Hu2B6N50Y,V51A; Hu2B6N50Y, V51A) VH: QVQLVQSGAEVKKPGASVKVSCKASGYTFTNYWIHWVRQAPGQGLEWMGVIDPSDTYPNYNKKFKGRVTMTTDTSTSTAYMELRSLRSDDTAVYYCARNGDSDYYSGMDYWGQGTTVTVSS VL: EIVLTQSPDFQSVTPKEKVTITCRTSQSIGTNIHWYQQKPDQSPKLLIKYASESISGVPSRFSGSGSGTDFTLTINSLEAEDAATYYCQQSNTWPFTFGGGTKVEIK

Reference: patent US20120141476A1 (MacroGenics, published 2012)
